Source: patent publication US20200308290A1 (AbbVie / Abbott, published 2020)
Residue numbers refer to the chain shown, from its start. Numbers in names are those of the source. Where two headings read alike, the source gives them in different places.

Assays:
[1] = molecular target: T1, CD25 on Kit225/K6 cells (human, UniProt P01589 22-272); assay: cell-based or functional assay
T1 sequence (looked up): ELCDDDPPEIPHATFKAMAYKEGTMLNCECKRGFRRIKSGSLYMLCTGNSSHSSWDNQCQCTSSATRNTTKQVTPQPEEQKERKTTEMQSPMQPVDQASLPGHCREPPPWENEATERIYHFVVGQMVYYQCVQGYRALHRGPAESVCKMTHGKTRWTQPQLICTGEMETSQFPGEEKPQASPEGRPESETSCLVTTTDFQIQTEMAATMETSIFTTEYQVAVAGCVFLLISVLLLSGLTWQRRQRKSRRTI

[2] = molecular target: T2, cynomolgous monkey CD25 (cynomolgous monkey); assay: SPR (BIAcore), cynomolgous CD25
T2 construct: also called cmCD25; cm

[3] = molecular target: T2, cynomolgous monkey CD25; assay: SPR (BIAcore), cynomolgous CD25; remark: listed apart in the source
[4] = molecular target: T2, cynomolgous monkey CD25; assay: SPR (BIAcore), cynomolgous CD25; remark: listed apart in the source
[5] = molecular target: T3, human CD25 (human, UniProt P01589 22-213, limits assumed); assay: SPR (BIAcore)
T3 construct: Recombinant soluble human CD25, coated on plates (ELISA) or injected over captured antibody (BIAcore); also called hCD25; IL2-R alpha
T3 sequence (looked up): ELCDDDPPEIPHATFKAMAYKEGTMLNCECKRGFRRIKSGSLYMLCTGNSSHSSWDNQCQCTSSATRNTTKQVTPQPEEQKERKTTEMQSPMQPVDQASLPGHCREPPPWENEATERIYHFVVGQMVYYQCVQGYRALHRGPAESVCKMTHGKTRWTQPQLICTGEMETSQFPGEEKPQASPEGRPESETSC

[6] = molecular target: T4, human CD25 (recombinant soluble) (human, UniProt P01589 22-240); assay: SPR (BIAcore), antibody captured, CD25 injected
T4 construct: extracellular domain; bought protein; also called IL2-Rα; recombinant human IL2-Rα
T4 sequence (looked up): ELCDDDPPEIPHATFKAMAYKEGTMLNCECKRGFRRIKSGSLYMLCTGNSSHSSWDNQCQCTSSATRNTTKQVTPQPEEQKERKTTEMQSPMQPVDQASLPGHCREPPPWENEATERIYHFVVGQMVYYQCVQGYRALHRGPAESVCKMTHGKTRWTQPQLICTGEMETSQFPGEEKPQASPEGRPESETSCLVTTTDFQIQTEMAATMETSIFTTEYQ

[7] = molecular target: T5, CD25 (recombinant) (human, UniProt P01589 22-213, limits assumed); assay: SPR (BIAcore)
T5 construct: bought protein; also called IL2-R alpha; IL2-Rα
T5 sequence (looked up): T3 sequence (looked up)

B1: NST-RN (antibody, IgG1, V domains shown)
VH: QVQLVQSGAEVKKPGSSVKVSCKASGYTFTSYRMHWVRQAPGQGLEWIGYINPSTGYTEYNQKFKDKATITADESTNTAYMELSSLRSEDTAVYYCARGGGVFDYWGQGTLVTVSS
VL: DIQMTQSPSTLSASVGDRVTITCSASSRISYMHWYQQKPGKAPKLLIYTTSNLASGVPARFSGSGSGTEFTLTISSLQPDDFATYYCHQRSTYPLTFGQGTKVEVK
With B1 the “Functional improvement (inhibition of proliferation of Kit225/K6 cells; IC50 normalized to wild type daclizumab)” value [1] was 1.5 fold.

B2: Variant C52 (antibody, V domains shown)
VH: B1 VH with I48M, N52K, S54N, T55S
VL: B1 VL with R28K, N52D
B2 showed a Kd [2] of 0.075 nM and a Kd [3] of 0.075 nM.

B3: Variant C54 (antibody, V domains shown)
VH: B1 VH with I48M, N52S, S54R, T55S, Y57R
VL: B1 VL with R28K, N52D
B3 gave a Kd [2] of 0.055 nM and a Kd [3] of 0.055 nM.

B4: Variant C55 (antibody, V domains shown)
VH: B1 VH with I48M, N52S, S54K, T55K, Y57R
VL: B1 VL with R28K, N52D
B4 showed a Kd [2] of 0.049 nM and a Kd [3] of 0.049 nM.

B5: Variant C57 (antibody, V domains shown)
VH: B1 VH with I48M, N52K, S54K, T55S, Y57R
VL: B1 VL with R28K, N52D
With B5 the Kd [2] was 0.078 nM and the Kd [3] was 0.078 nM.

B6: Variant C60 (antibody, V domains shown)
VH: B1 VH with I48M, N52S, S54N, T55K, Y57R
VL: B1 VL with R28K, N52D
For B6, the Kd [2] was < 0.0023 nM and the Kd [3] was < 0.0023 nM.

B7: Variant C53 (antibody, V domains shown)
VH: B1 VH with I48M, N52S, S54R, T55K, Y57R
VL: B1 VL with R28K, N52D
B7 was tested, and the Kd [2] was < 0.0024 nM and the Kd [3] was < 0.0024 nM.

B8: Variant C48 (antibody, V domains shown)
VH: B1 VH with I48M, N52R, S54K, T55S
VL: B1 VL with R28K, N52D
Binder B8 has a Kd [2] of 0.053 nM and a Kd [3] of 0.053 nM.

B9: Variant C49 (antibody, V domains shown)
VH: B1 VH with I48M, N52S, S54N, T55K
VL: B1 VL with R28K, N52D
Binder B9 has a Kd [2] of 0.0079 nM and a Kd [3] of 0.0079 nM.

B10: Variant C50 (antibody, V domains shown)
VH: B1 VH with I48M, N52S, S54N, T55S
VL: B1 VL with R28K, N52D
B10 showed a Kd [2] of 0.026 nM and a Kd [3] of 0.026 nM.

B11: Variant C44 (antibody, V domains shown)
VH: B1 VH with I48M, N52S, S54K, T55K
VL: B1 VL with R28K, N52D
Work on B11 yielded a Kd [2] of 0.042 nM and a Kd [3] of 0.042 nM.

B12: Variant C46 (antibody, V domains shown)
VH: B1 VH with I48M, N52K, S54K, T55S
VL: B1 VL with R28K, N52D
With B12 the Kd [2] was 0.011 nM and the Kd [3] was 0.011 nM.

B13: Variant C45 (antibody, V domains shown)
VH: B1 VH with I48M, N52S, S54K, T55S
VL: B1 VL with R28K, N52D
For B13, the Kd [2] was 0.055 nM and the Kd [3] was 0.055 nM.

B14: Variant C61 (antibody, V domains shown)
VH: B1 VH with I48M, N52S, S54N, T55S, Y57R
VL: B1 VL with R28K, N52D
For B14, the Kd [2] was 0.055 nM and the Kd [3] was 0.055 nM.

B15: Variant C62 (antibody, V domains shown)
VH: B1 VH with I48M, N52K, S54N, T55K, Y57R
VL: B1 VL with R28K, N52D
Binder B15 has a Kd [2] of 0.1 nM and a Kd [3] of 0.1 nM.

B16: Variant C59 (antibody, V domains shown)
VH: B1 VH with I48M, N52R, S54K, T55S, Y57R
VL: B1 VL with R28K, N52D
B16 showed a Kd [2] of 0.05 nM and a Kd [3] of 0.05 nM.

B17: Variant C51 (antibody, V domains shown)
VH: B1 VH with I48M, N52K, S54N, T55K
VL: B1 VL with R28K, N52D
B17 showed a Kd [2] of 0.093 nM and a Kd [3] of 0.093 nM.

B18: Variant C63 (antibody, V domains shown)
VH: B1 VH with I48M, N52K, S54N, T55S, Y57R
VL: B1 VL with R28K, N52D
Binder B18 has a Kd [2] of 0.063 nM and a Kd [3] of 0.063 nM.

B19: Variant C47 (antibody, V domains shown)
VH: B1 VH with I48M, N52R, S54K, T55K
VL: B1 VL with R28K, N52D
Work on B19 yielded a Kd [2] of 0.1 nM and a Kd [3] of 0.1 nM.

B20: Variant C39 (antibody, V domains shown)
VH: B1 VH with I48M, N52S, S54R, T55K
VL: B1 VL with R28K, N52D
B20 was tested, and the Kd [4] was 0.031 nM and the Kd [3] was 0.031 nM.

B21: Variant C15 (antibody, name in Kabat numbering, V domains shown)
VH: B1 VH with N52V, S54R, T55R
VL: B1 VL with R28S, N52E
notes: Isotype as printed: G1 fa; also called VRR-SE
B21 showed a Kd [5] of 0.029 nM.

B22: Variant C26 (antibody, name in Kabat numbering, V domains shown)
VH: B1 VH with N52K, T55R, E74K
VL: B1 VL with R28S, N52E
notes: Isotype as printed: G1 fa; E to K read as E73K
For B22, the Kd [5] was 0.121 nM.

B23: SRK-SE (antibody, IgG1, name in Kabat numbering, V domains shown)
VH: B1 VH with N52S, S54R, T55K
VL: B1 VL with R28S, N52E
notes: IgG1/kappa; also called S52R53K54 VH with S29E53 VL
In the case of B23, the “Affinity improvement (KD normalized to wild type daclizumab)” value [6] is reported as 31 fold, the Kd [6] is reported as 0.016 nM and the koff [6] is reported as 2.18e-05 s⁻¹. The kon [6] was 1.38e+06 M⁻¹ s⁻¹ and the “Functional improvement (inhibition of proliferation of Kit225/K6 cells; IC50 normalized to wild type daclizumab)” value [1] was 3.5 fold.

B24: RKT-SE (antibody, IgG1, name in Kabat numbering, V domains shown)
VH: B1 VH with N52R, S54K
VL: B1 VL with R28S, N52E
B24 was tested, and the “Functional improvement (inhibition of proliferation of Kit225/K6 cells; IC50 normalized to wild type daclizumab)” value [1] was 2 fold.

B25: T50A (antibody, IgG1, V domains shown)
VH: B1 VH
VL: B1 VL with R28S, T49A
In the case of B25, the “Functional improvement (inhibition of proliferation of Kit225/K6 cells; IC50 normalized to wild type daclizumab)” value [1] is reported as 0.8 fold.

B26: Variant C27 (antibody, name in Kabat numbering, V domains shown)
VH: B1 VH with I48M, T55S
VL: B1 VL with R28S
notes: Isotype as printed: G2M3.QL
Binder B26 has a Kd [4] of 0.263 nM and a Kd [3] of 0.263 nM.

B27: Y32A (antibody, IgG1, name in Kabat numbering, V domains shown)
VH: B1 VH
VL: B1 VL with R28S, Y31A
With B27 the “Functional improvement (inhibition of proliferation of Kit225/K6 cells; IC50 normalized to wild type daclizumab)” value [1] was 0.4 fold.

B28: S31A (antibody, IgG1, V domains shown)
VH: B1 VH
VL: B1 VL with R28S, S30A
With B28 the “Functional improvement (inhibition of proliferation of Kit225/K6 cells; IC50 normalized to wild type daclizumab)” value [1] was 0.7 fold.

B29: Variant C29 (antibody, name in Kabat numbering, V domains shown)
VH: B1 VH with I48M, T55S
VL: B1 VL with R28S, N52E
notes: Isotype as printed: G2M3.QL
In the case of B29, the Kd [4] is reported as 0.098 nM.

B30: daclizumab variant S77 (antibody, IgG1, name in Kabat numbering, V domains shown)
VH: B1 VH with I48M
VL: B1 VL with R28S
notes: IgG1; Kabat positions; also called I48M; DAC I48M
In the case of B30, the Kd [7] is reported as 0.478 nM.

B31: VRR-SE (antibody, IgG1, name in Kabat numbering, V domains shown)
VH: B1 VH with N52V, S54R, T55R
VL: B1 VL with R28S, N52E
notes: IgG1/kappa; also called VRRE-SE
For B31, the “Affinity improvement (KD normalized to wild type daclizumab)” value [6] was 17 fold, the Kd [6] was 0.029 nM and the koff [6] was 3.29e-05 s⁻¹. The kon [6] was 1.24e+06 M⁻¹ s⁻¹ and the “Functional improvement (inhibition of proliferation of Kit225/K6 cells; IC50 normalized to wild type daclizumab)” value [1] was 1.2 fold.

B32: Variant C19 (antibody, name in Kabat numbering, V domains shown)
VH: B1 VH with N52S, S54R, T55K
VL: B1 VL with R28S, N52E
notes: Isotype as printed: G1 fa; also called SRK-SE
Binder B32 has a Kd [5] of 0.016 nM.

B33: RNR-SE (antibody, IgG1, name in Kabat numbering, V domains shown)
VH: B1 VH with N52R, S54N, T55R
VL: B1 VL with R28S, N52E
notes: IgG1/kappa
In the case of B33, the “Affinity improvement (KD normalized to wild type daclizumab)” value [6] is reported as 23 fold, the Kd [6] is reported as 0.022 nM and the koff [6] is reported as 3.34e-05 s⁻¹. The kon [6] was 1.54e+06 M⁻¹ s⁻¹ and the “Functional improvement (inhibition of proliferation of Kit225/K6 cells; IC50 normalized to wild type daclizumab)” value [1] was 2.4 fold.

B34: Variant C16 (antibody, name in Kabat numbering, V domains shown)
VH: B1 VH with N52R, S54N, T55R
VL: B1 VL with R28S, N52E
notes: Isotype as printed: G1 fa; also called RNR-SE
Binder B34 has a Kd [5] of 0.022 nM.
